What was measured:
[1] = biological target: recombinant human TNF-alpha (human) (UniProt P01375); assay: standard assay of binding to human TNFα
[2] = biological target: recombinant human TNF-alpha (human) (UniProt P01375); assay: Scatchard analysis, 125I-TNF and unlabelled TNF in solution, antibody taken out with anti-IgG agarose beads

CDP571 (CDR-grafted CB0010, grafted light chain gEU and grafted heavy chain 2hEUg) (antibody)
Kd [1]: 0.087 nM
Kd [2]: 0.14 nM

Source: patent publication US20030199679A1
